One test concerns the target T1, cyCD19 ECD (cynomolgus).
T1 construct: extracellular domain; also called cynomolgus CD19
In words: binding to CD19 ECD, assay not described.

For test [1], the target named is T2, monomeric human CD19 antigen Fc(kih) fusion molecule (human, UniProt P0DOX5 223-449 = IgG part).
T2 construct: also called monomeric CD19-Fc; human CD19-Fc(kih)
Briefly: SPR ProteOn XPR36, Fab from bacterial supernatant captured via anti-human Fab, monomeric CD19-Fc analyte.

The target in another test is T3, huCD19 ECD (human, UniProt P15391 20-291).
T3 construct: extracellular domain
T3 sequence (looked up): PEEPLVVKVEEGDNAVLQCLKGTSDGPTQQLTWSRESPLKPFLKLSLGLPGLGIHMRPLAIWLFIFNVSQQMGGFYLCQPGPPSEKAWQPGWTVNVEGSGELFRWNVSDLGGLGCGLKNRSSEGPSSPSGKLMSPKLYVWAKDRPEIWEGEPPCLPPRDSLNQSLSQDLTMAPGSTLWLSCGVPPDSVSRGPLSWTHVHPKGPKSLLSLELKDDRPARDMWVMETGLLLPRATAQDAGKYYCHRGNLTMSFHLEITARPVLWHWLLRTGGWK
Briefly: binding to CD19 ECD, assay not described.

Test [2] concerns the target T4, human CD19 (recombinant, form not given) (human, UniProt P15391 20-291, limits assumed).
T4 construct: also called huCD19
T4 sequence (looked up): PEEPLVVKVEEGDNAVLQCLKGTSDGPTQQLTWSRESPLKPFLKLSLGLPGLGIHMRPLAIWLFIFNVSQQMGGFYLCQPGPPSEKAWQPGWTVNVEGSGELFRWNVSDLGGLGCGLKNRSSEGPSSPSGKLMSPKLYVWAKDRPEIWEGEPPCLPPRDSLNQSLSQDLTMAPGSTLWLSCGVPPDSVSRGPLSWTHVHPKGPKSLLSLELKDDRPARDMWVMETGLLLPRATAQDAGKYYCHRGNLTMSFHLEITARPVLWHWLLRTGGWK
In words: BIACORE (SPR), format not described.

In test [3] the target is T4, human CD19 (recombinant, form not …). Briefly: relative binding after incubation, method not described.
The target in test [4] is T5, mouse 4-1BB on activated mouse splenocytes (mouse, UniProt P20334 24-256).
T5 construct: whole, on cells; also called murine 4-1BB
T5 sequence (P20334 24-256): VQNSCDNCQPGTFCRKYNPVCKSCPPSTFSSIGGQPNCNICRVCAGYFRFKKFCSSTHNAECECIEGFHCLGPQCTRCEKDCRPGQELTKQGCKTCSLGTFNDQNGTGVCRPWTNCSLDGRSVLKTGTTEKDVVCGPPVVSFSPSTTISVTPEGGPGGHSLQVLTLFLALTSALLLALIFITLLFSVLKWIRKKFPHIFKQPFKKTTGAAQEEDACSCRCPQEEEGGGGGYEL
Briefly: flow cytometry on activated mouse splenocytes, 4-1BB+ CD8+ T cells.

In test [5] the target is T5, mouse 4-1BB on activated mouse …. In words: flow cytometry on activated mouse splenocytes, 4-1BB+ CD4+ T cells.
Test [6] has as its target T6, human fibroblast activation protein (FAP) on cells (human, UniProt Q12884 1-760).
T6 construct: also called human FAP; huFAP
Briefly: flow cytometry on FAP+ MV-3 cells.

The target of test [7] is T6, human fibroblast activation protein …. Briefly: flow cytometry on FAP+ WM-266-4 cells.

B1: wild-type humanized anti-human CD19 antibody (var.0) (antibody, V domains shown)
VH: QVQLVQSGAEVKKPGASVKVSCKASGYTFTDYIMHWVRQAPGQGLEWMGYINPYNDGSKYTEKFNGKATMTSDTSISTAYMELSRLRSDDTAVYYCARGTYYYGSALFDYWGQGTTVTVSS
VL: DIVMTQTPLSLSVTPGQPASISCKSSQSLENSNGNTYLNWYLQKPGQSPQLLIYRVSKRFSGVPDRFSGSGSGTDFTLKISRVEAEDVGVYYCLQLTHVPYTFGQGTKLEIK
notes: humanized 8B8; also called variant 0; wt
Turning to B1, a half-maximal effect with cyCD19 ECD (EC50) was put at 0.313 µg/mL.

B2: anti-CD19 clone 8B8-7H07, Fab in bacterial supernatant (Fab, V domains shown)
VH: QVQLVQSGAEVKKPGASVKVSCKASGYTFTDYIMHWVRQAPGQGLEWMGYINPYNDGSKYTEKFQGRVTMTSDTSISTAYMELSRLRSDDTAVYYCARGTYYYGSELFDYWGQGTTVTVSS
VL: DIVMTQTPLSLSVTPGQPASISCKSSQSLETSTGNTYLNWYLQKPGQSPQLLIYRVSKRFSGVPDRFSGSGSGTDFTLKISRVEAEDVGVYYCLQATHIPYTFGQGTKLEIK
Molecule B2 yielded a koff in test [1] of 5.75e-05 s⁻¹.

B3: anti-CD19 clone 8B8-5H09, Fab in bacterial supernatant (Fab, V domains shown)
VH: QVQLVQSGAEVKKPGASVKVSCKASGYTFTDYIMHWVRQAPGQGLEWMGYINPYNDGSKYTEKFQGRVTMTSDTSISTAYMELSRLRSDDTAVYYCARGTYYYGSALFDYWGQGTTVTVSS
VL: DIVMTQTPLSLSVTPGQPASISCKSSQSLESSTGNTYLNWYLQKPGQSPQLLIYRVSKRFSGVPDRFSGSGSGTDFTLKISRVEAEDVGVYYCLQLIDYPVTFGQGTKLEIK
In turn, B3 returned a koff in test [1] of 0.000258 s⁻¹.

B4: humanized anti-human CD19 antibody var.9 (S27eP/N28S) (antibody, V domains shown)
VH: QVQLVQSGAEVKKPGASVKVSCKASGYTFTDYIMHWVRQAPGQGLEWMGYINPYNDGSKYTEKFQGRVTMTSDTSISTAYMELSRLRSDDTAVYYCARGTYYYGSALFDYWGQGTTVTVSS
VL: DIVMTQTPLSLSVTPGQPASISCKSSQSLENPSGNTYLNWYLQKPGQSPQLLIYRVSKRFSGVPDRFSGSGSGTDFTLKISRVEAEDVGVYYCLQLTHVPYTFGQGTKLEIK
notes: also called variant 9
As for B4, the half-maximal effective concentration (EC50) with cyCD19 ECD is 0.435 µg/mL; with huCD19 ECD, 0.089 µg/mL. Also, in test [2], the Kd is 45 nM. Besides, in test [2], the “t1/2” value is 4 min. For the same molecule, the “human CD19 binding after pH 6.0 incubation [%]” value in test [3] came out at 87%.

B5: humanized anti-human CD19 antibody var.5 (S27eP), named clone 8B8-018 (antibody, V domains shown)
VH: QVQLVQSGAEVKKPGASVKVSCKASGYTFTDYIMHWVRQAPGQGLEWMGYINPYNDGSKYTEKFQGRVTMTSDTSISTAYMELSRLRSDDTAVYYCARGTYYYGSALFDYWGQGTTVTVSS
VL: DIVMTQTPLSLSVTPGQPASISCKSSQSLENPNGNTYLNWYLQKPGQSPQLLIYRVSKRFSGVPDRFSGSGSGTDFTLKISRVEAEDVGVYYCLQLTHVPYTFGQGTKLEIK
notes: 5 is named clone 8B8-018; also called variant 5
Molecule B5 had a half-maximal effective concentration (EC50) with cyCD19 ECD of 0.255 µg/mL. This molecule had an EC50 in the test with huCD19 ECD of 0.084 µg/mL. Besides, in test [2], the Kd was 6 nM and the “t1/2” value was 43.6 min. Further, in test [3], the “human CD19 binding after pH 6.0 incubation [%]” value worked out at 99% and the “human CD19 binding after pH 7.4 incubation [%]” value is 95%.

B6: FAP-targeted murine 4-1BB ligand trimer-containing Fc fusion antigen binding molecule Construct M.1 (Fc fusion)
chain 1: RTEPRPALTITTSPNLGTRENNADQVTPVSHIGSPNTTQQGSPVFAKLLAKNQASLSNTTLNWHSQDGAGSSYLSQGLRYEEDKKELVVDSPGLYYVFLELKLSPTFTNTGHKVQGWVSLVLQAKPQVDDFDNLALTVELFPSSMENKLVDRSWSQLLLLKAGHRLSVGLRAYLHGAQDAYRDWELSYPNTTSFGLFLVKPDNPWEGGGGSGGGGSRTEPRPALTITTSPNLGTRENNADQVTPVSHIGSPNTTQQGSPVFAKLLAKNQASLSNTTLNWHSQDGAGSSYLSQGLRYEEDKKELVVDSPGLYYVFLELKLSPTFTNTGHKVQGWVSLVLQAKPQVDDFDNLALTVELFPSSMENKLVDRSWSQLLLLKAGHRLSVGLRAYLHGAQDAYRDWELSYPNTTSFGLFLVKPDNPWEGGGGSGGGGSRADAAPTVSIFPPSSEQLTSGGASVVCFLNNFYPKDINVKWKIDGSERQNGVLNSWTDQDSKDSTYSMSSTLTLTKDEYERHNSYTCEATHKTSTSPIVKSFNRNECVPRDCGCKPCICTVPEVSSVFIFPPKPKDVLTITLTPKVTCVVVAISKDDPEVQFSWFVDDVEVHTAQTKPREEQINSTFRSVSELPIMHQDWLNGKEFKCRVNSAAFGAPIEKTISKTKGRPKAPQVYTIPPPKEQMAKDKVSLTCMITNFFPEDITVEWQWNGQPAENYDNTQPIMDTDGSYFVYSDLNVQKSNWEAGNTFTCSVLHEGLHNHHTEKSLSHSPGK
chain 2: RTEPRPALTITTSPNLGTRENNADQVTPVSHIGSPNTTQQGSPVFAKLLAKNQASLSNTTLNWHSQDGAGSSYLSQGLRYEEDKKELVVDSPGLYYVFLELKLSPTFTNTGHKVQGWVSLVLQAKPQVDDFDNLALTVELFPSSMENKLVDRSWSQLLLLKAGHRLSVGLRAYLHGAQDAYRDWELSYPNTTSFGLFLVKPDNPWEGGGGSGGGGSAKTTPPSVYPLAPGSAAQTNSMVTLGCLVKGYFPEPVTVTWNSGSLSSGVHTFPAVLQSDLYTLSSSVTVPSSTWPSQTVTCNVAHPASSTKVDKKIVPRDC
heavy: EVQLLESGGGLVQPGGSLRLSCAASGFTFSSHAMSWVRQAPGKGLEWVSAIWASGEQYYADSVKGRFTISRDNSKNTLYLQMNSLRAEDTAVYYCAKGWLGNFDYWGQGTLVTVSSAKTTPPSVYPLAPGSAAQTNSMVTLGCLVKGYFPEPVTVTWNSGSLSSGVHTFPAVLQSDLYTLSSSVTVPSSTWPSQTVTCNVAHPASSTKVDKKIVPRDCGCKPCICTVPEVSSVFIFPPKPKDVLTITLTPKVTCVVVAISKDDPEVQFSWFVDDVEVHTAQTKPREEQINSTFRSVSELPIMHQDWLNGKEFKCRVNSAAFGAPIEKTISKTKGRPKAPQVYTIPPPKKQMAKDKVSLTCMITNFFPEDITVEWQWNGQPAENYKNTQPIMKTDGSYFVYSKLNVQKSNWEAGNTFTCSVLHEGLHNHHTEKSLSHSPGK
light: EIVLTQSPGTLSLSPGERATLSCRASQSVSRSYLAWYQQKPGQAPRLLIIGASTRATGIPDRFSGSGSGTDFTLTISRLEPEDFAVYYCQQGQVIPPTFGQGTKVEIKRADAAPTVSIFPPSSEQLTSGGASVVCFLNNFYPKDINVKWKIDGSERQNGVLNSWTDQDSKDSTYSMSSTLTLTKDEYERHNSYTCEATHKTSTSPIVKSFNRNEC
notes: murine IgG1 DD/KK, DAPG; anti-FAP 28H1
Turning to B6, the EC50 in test [4] was found to be 0.87 nM; in test [5] it was 0.52 nM; in [6] it was 7.26 nM; in [7] it was 5.14 nM.

B7: FAP-targeted murine 4-1BB ligand trimer-containing Fc fusion antigen binding molecule Construct M.2 (Fc fusion)
chain 1: RTEPRPALTITTSPNLGTRENNADQVTPVSHIGCPNTTQQGSPVFAKLLAKNQASLSNTTLNWHSQDGAGSSYLSQGLRYEEDKKELVVDSPGLYYVFLELKLSPTFTNTGHKVQGWVSLVLQAKPQVDDFDNLALTVELFPCSMENKLVDRSWSQLLLLKAGHRLSVGLRAYLHGAQDAYRDWELSYPNTTSFGLFLVKPDNPWEGGGGSGGGGSRTEPRPALTITTSPNLGTRENNADQVTPVSHIGCPNTTQQGSPVFAKLLAKNQASLSNTTLNWHSQDGAGSSYLSQGLRYEEDKKELVVDSPGLYYVFLELKLSPTFTNTGHKVQGWVSLVLQAKPQVDDFDNLALTVELFPCSMENKLVDRSWSQLLLLKAGHRLSVGLRAYLHGAQDAYRDWELSYPNTTSFGLFLVKPDNPWEGGGGSGGGGSRADAAPTVSIFPPSSEQLTSGGASVVCFLNNFYPKDINVKWKIDGSERQNGVLNSWTDQDSKDSTYSMSSTLTLTKDEYERHNSYTCEATHKTSTSPIVKSFNRNECVPRDCGCKPCICTVPEVSSVFIFPPKPKDVLTITLTPKVTCVVVAISKDDPEVQFSWFVDDVEVHTAQTKPREEQINSTFRSVSELPIMHQDWLNGKEFKCRVNSAAFGAPIEKTISKTKGRPKAPQVYTIPPPKEQMAKDKVSLTCMITNFFPEDITVEWQWNGQPAENYDNTQPIMDTDGSYFVYSDLNVQKSNWEAGNTFTCSVLHEGLHNHHTEKSLSHSPGK
chain 2: RTEPRPALTITTSPNLGTRENNADQVTPVSHIGCPNTTQQGSPVFAKLLAKNQASLSNTTLNWHSQDGAGSSYLSQGLRYEEDKKELVVDSPGLYYVFLELKLSPTFTNTGHKVQGWVSLVLQAKPQVDDFDNLALTVELFPCSMENKLVDRSWSQLLLLKAGHRLSVGLRAYLHGAQDAYRDWELSYPNTTSFGLFLVKPDNPWEGGGGSGGGGSAKTTPPSVYPLAPGSAAQTNSMVTLGCLVKGYFPEPVTVTWNSGSLSSGVHTFPAVLQSDLYTLSSSVTVPSSTWPSQTVTCNVAHPASSTKVDKKIVPRDC
heavy: EVQLLESGGGLVQPGGSLRLSCAASGFTFSSHAMSWVRQAPGKGLEWVSAIWASGEQYYADSVKGRFTISRDNSKNTLYLQMNSLRAEDTAVYYCAKGWLGNFDYWGQGTLVTVSSAKTTPPSVYPLAPGSAAQTNSMVTLGCLVKGYFPEPVTVTWNSGSLSSGVHTFPAVLQSDLYTLSSSVTVPSSTWPSQTVTCNVAHPASSTKVDKKIVPRDCGCKPCICTVPEVSSVFIFPPKPKDVLTITLTPKVTCVVVAISKDDPEVQFSWFVDDVEVHTAQTKPREEQINSTFRSVSELPIMHQDWLNGKEFKCRVNSAAFGAPIEKTISKTKGRPKAPQVYTIPPPKKQMAKDKVSLTCMITNFFPEDITVEWQWNGQPAENYKNTQPIMKTDGSYFVYSKLNVQKSNWEAGNTFTCSVLHEGLHNHHTEKSLSHSPGK
light: EIVLTQSPGTLSLSPGERATLSCRASQSVSRSYLAWYQQKPGQAPRLLIIGASTRATGIPDRFSGSGSGTDFTLTISRLEPEDFAVYYCQQGQVIPPTFGQGTKVEIKRADAAPTVSIFPPSSEQLTSGGASVVCFLNNFYPKDINVKWKIDGSERQNGVLNSWTDQDSKDSTYSMSSTLTLTKDEYERHNSYTCEATHKTSTSPIVKSFNRNEC
With B7, the EC50 worked out at 0.54 nM in test [4], 0.42 nM in test [5], 6.9 nM in test [6] and 5.63 nM in test [7].

(Values after US20250101135A1 (Hoffmann-La Roche, published 2025).)
